Results on five molecules are retold here after publication PMC3817407.

The target in one assay is T1, ECF04_1609.
T1 chain: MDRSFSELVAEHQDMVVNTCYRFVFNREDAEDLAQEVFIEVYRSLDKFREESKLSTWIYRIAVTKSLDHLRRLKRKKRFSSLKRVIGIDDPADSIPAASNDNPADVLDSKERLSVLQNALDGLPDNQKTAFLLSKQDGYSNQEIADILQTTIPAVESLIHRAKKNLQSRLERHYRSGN

The target in the next assay is T2, ECF11_3726.
T2 chain: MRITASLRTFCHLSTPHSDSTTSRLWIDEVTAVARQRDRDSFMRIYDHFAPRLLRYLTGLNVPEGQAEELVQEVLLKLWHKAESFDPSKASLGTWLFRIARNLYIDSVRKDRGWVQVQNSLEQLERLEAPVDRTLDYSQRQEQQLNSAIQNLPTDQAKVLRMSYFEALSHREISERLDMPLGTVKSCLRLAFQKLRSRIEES

In the next assay the target is T3, ECF11_987.
T3 chain: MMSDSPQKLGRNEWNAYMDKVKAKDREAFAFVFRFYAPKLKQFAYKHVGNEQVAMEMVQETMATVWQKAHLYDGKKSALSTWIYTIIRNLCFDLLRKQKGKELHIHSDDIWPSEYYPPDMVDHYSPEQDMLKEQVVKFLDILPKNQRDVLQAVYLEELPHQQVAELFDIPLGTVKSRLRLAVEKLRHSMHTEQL

A further assay addresses T4, ECF12_807.
T4 chain: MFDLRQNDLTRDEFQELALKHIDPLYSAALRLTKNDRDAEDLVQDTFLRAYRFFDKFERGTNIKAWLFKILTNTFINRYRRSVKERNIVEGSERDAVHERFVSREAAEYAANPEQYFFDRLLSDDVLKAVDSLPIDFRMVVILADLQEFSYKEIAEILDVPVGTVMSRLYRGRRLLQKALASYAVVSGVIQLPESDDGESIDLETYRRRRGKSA

In a further assay the target is T5, ECF14_1324.
T5 chain: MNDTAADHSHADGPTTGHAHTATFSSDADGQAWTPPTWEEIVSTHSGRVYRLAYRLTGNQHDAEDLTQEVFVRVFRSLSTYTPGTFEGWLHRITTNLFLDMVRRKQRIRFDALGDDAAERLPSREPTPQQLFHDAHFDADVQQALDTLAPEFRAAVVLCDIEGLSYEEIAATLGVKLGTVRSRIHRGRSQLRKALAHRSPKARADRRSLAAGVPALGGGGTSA

Another assay addresses T6, ECF16_3622.
T6 chain: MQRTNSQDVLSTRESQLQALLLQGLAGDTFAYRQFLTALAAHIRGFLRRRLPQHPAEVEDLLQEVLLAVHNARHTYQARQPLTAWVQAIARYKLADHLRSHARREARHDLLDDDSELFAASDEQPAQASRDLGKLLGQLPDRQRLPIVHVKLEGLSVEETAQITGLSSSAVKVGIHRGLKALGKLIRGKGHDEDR

Another assay addresses T7, ECF16_973.
T7 chain: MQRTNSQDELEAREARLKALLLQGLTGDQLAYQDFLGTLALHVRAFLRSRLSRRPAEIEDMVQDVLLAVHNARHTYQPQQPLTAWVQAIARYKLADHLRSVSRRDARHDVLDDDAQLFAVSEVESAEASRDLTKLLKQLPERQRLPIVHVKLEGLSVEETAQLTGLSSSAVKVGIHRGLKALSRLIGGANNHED

The target of another assay is T8, ECF17_1458.
T8 chain: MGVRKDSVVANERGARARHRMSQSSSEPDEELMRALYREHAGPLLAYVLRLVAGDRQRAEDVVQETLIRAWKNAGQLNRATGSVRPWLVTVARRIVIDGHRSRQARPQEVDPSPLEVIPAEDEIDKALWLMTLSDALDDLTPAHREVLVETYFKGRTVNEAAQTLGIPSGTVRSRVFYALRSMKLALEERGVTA

In the next assay the target is T9, ECF17_1691.
T9 chain: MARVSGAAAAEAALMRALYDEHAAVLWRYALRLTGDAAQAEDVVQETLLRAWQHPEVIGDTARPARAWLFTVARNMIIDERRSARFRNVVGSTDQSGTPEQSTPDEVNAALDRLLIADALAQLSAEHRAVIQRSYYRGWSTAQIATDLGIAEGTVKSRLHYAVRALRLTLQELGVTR

In another assay the target is T10, ECF22_4450.
T10 chain: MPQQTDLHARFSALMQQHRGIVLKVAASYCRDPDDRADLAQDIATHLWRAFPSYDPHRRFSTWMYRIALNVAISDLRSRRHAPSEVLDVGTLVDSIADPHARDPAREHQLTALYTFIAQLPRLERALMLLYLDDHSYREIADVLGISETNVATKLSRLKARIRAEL

In another assay the target is T11, ECF27_4265.
T11 chain: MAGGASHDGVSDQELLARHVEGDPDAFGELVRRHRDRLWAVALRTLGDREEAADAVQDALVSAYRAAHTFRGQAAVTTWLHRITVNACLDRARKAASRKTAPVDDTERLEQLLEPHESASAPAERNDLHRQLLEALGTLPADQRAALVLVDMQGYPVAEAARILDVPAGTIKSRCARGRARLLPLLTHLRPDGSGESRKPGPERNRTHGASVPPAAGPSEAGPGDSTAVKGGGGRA

In another assay the target is T12, ECF31_34.
T12 chain: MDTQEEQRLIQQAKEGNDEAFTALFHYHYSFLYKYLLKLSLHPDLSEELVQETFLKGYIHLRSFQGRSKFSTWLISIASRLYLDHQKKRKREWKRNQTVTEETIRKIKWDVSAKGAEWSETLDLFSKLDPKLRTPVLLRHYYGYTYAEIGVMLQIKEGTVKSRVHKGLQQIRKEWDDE

The target of the next assay is T13, ECF33_375.
T13 chain: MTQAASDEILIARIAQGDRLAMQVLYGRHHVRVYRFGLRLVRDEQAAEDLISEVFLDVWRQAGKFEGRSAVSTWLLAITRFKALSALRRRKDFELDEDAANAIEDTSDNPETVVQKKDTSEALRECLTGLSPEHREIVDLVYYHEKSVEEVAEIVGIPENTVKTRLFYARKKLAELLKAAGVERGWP

The target in the next assay is T14, ECF34_1384.
T14 chain: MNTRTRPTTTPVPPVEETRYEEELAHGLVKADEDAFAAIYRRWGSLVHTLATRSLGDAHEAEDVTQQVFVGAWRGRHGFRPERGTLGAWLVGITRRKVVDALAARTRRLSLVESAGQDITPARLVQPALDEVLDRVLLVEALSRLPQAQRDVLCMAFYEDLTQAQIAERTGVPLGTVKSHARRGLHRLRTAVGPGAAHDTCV

B1: AS31_34 (protein)
chain: MNKEKLSDHLKSEWKKIDQTANPSIPNQKELLHQLSQMKAEYRKKLLQEIILFVFCALMVVSAAILAFTQAPAVFIVLQVCVLAVLPILIAAEKKRHLGECEVKRG
Consider B1, for which the fold repression with ECF04_1609 came to 2.79; in the assay with ECF11_3726, 5.86; in the assay with ECF11_987, 3.03; with ECF12_807, 3.66; in the assay with ECF14_1324 it was 6.35; with ECF16_3622, 3.01. Also, the fold repression in the assay with ECF16_973 was 1.84; with ECF17_1458 it was 4.02; with ECF17_1691 it was 2.93; with ECF22_4450, 3.59; with ECF27_1331, 2.57; in the assay with ECF27_4265 it was 1.48. The results for the fold repression with ECF31_34, in the assay with ECF33_375 and in the assay with ECF34_1384 were 22.7, 2.06 and 2.98, respectively.

B2: AS27_1331 (protein)
chain: MSAADKDPDKHSADADPPLTVELLADLQAGLLDDATAARIRSRVRSDPQAQQILRALNRVRRDVAAMGADPAWGPAARPAVVDSISAALRSARPNSSPGAAHAARPHVHPVRMIAGAAGLCAVATAIGVGAVVDAPPPAPSAPTTAQHITVSKPAPVIPLSRPQVLDLLHHTPDYGPPGGPLGDPSRRTSCLSGLGYPASTPVLGAQPIDIDARPAVLLVIPADTPDKLAVFAVAPHCSAADTGLLASTVVPRA
With B2, the fold repression with ECF04_1609 came out at 5.65; with ECF11_3726, 5.02; in the assay with ECF11_987 it was 5.69; with ECF12_807 it was 2.07; with ECF14_1324, 5.93; with ECF16_3622, 6.93. The fold repression in the assay with ECF16_973 was 5.57; in the assay with ECF17_1458 it was 2.79; with ECF17_1691 it was 2.09; in the assay with ECF22_4450 it was 5.86; in the assay with ECF27_1331, 3.32; with ECF27_4265, 5.34. For the same molecule, the fold repression came out at 5.7 with ECF31_34, 4.75 with ECF33_375 and 2.35 in the assay with ECF34_1384.

B3: AS27_4265 (protein)
chain: MTGHPDVAEIADLAEGLLPTTRTTEVRQHLESCELCADVYASLTEIQGLLGTLPAPAPMPDDVAARIDAALAAEPPLGIADGTRVSRETSTPADRPAGHARPSSTGPGRKDRRRGGRRRIAVLGAVAAAAAIGIGSVVVSSLTEDSSSGNTAREQQTAIADTFSEGRLKDRVTNLVADGSAENGSRTPRSFGMESENGGETAENHVFKQPTVPECIRKGIGRDDAVIATEPGVYKGREALLVVLPDATNDTQVTAYIVETACVDQPAVGKAKILLEHSYARS
On to B3, for which the fold repression was determined as 2.44 with ECF04_1609; 7.03 with ECF11_3726; 5.93 with ECF11_987; 8.59 in the assay with ECF12_807; 3.08 with ECF14_1324; 5.58 with ECF16_3622. For the same molecule, the fold repression with ECF16_973 came to 1.77; with ECF17_1458, 2.47; with ECF17_1691, 2.82; in the assay with ECF22_4450 it was 4.03; in the assay with ECF27_1331, 3.78; in the assay with ECF27_4265 it was 152. The fold repression with ECF31_34 was 1.67; in the assay with ECF33_375, 1.07; with ECF34_1384 it was 5.28.

B4: AS25_1645 (protein)
chain: MNESFSQRQTDGDRRRGGDLEMKKNHTSHQHHTDSETPMGHNFEQFQRLSAYFDGEATPAERKEIQHLLDTDPQVKQQYQQLRQLKQALQLLPIPTSISAQYLGQRVLARLRRSQLRTLSLWGSGAIAALFVAGVMGQMPRLNFDRFAKNDPDQQPTAALVETSPQGEEALVVALNRPVLQIPKLATTESP
B4: the fold repression with ECF04_1609 stood at 6.4; with ECF11_3726, 13.1; in the assay with ECF11_987 it was 8.87; with ECF12_807, 9.09; with ECF14_1324 it was 18.7; with ECF16_3622, 6.9. Also, the fold repression stood at 5.41 with ECF16_973; 7.18 with ECF17_1458; 4.24 with ECF17_1691; 9.86 with ECF22_4450; 11.2 with ECF27_1331; 24.5 in the assay with ECF27_4265. The fold repression with ECF31_34 was 5.66; with ECF33_375, 3.29; in the assay with ECF34_1384 it was 7.62.

B5: AS30_35 (protein)
chain: MDKRLQQLREEYKNVQIPKELDIIVEKALQQEPKKKRIVMWPTSAAIAAAILFTALVNINPDAAQAMSKIPVIGKIVKAITFIEIKEEKDQSSIDVKTPALSGLSNKELENSINEKYLKESQQLYKEFIQSTSKNKKGHLSIYSDYETVTDTPDLLSIRRNIETTQASSYTQSRYITIDKKNDILLTLKSLFKDERYIKVISQNIKEQMKQQMKEDPNKIYWLTDEDAEPFKTILPDQTFYITEDHKLVISFDEYEVAPGYMGVTEFTIPTGVISNLLVGERYIR
As for B5, the fold repression was 2.43 with ECF04_1609; 2.09 with ECF11_3726; 2.11 in the assay with ECF11_987; 3.12 with ECF12_807; 1.7 with ECF14_1324; 1.39 with ECF16_3622. The fold repression was found to be 1.73 with ECF16_973; 1.52 with ECF17_1458; 1.6 in the assay with ECF17_1691; 2.21 in the assay with ECF22_4450; 2.39 with ECF27_1331; 1.44 with ECF27_4265. In addition, the fold repression in the assay with ECF31_34 came to 2.22; in the assay with ECF33_375, 1.3; in the assay with ECF34_1384, 2.04.
